Assay results: patent US20250347696A1, “SELF-ACTIVATING FÖRSTER RESONANCE ENERGY TRANSFER (saFRET) BIOSENSORS AND METHODS FOR MAKING AND USING THEM” (The Regents of the University of California, priority 2021, published 2025)

How the values were obtained:
[1] = target: improved ZAP70 FRET biosensor with substrate … (SEQ ID NO:113), kinase domain removed
[2] = target: improved ZAP70 FRET biosensor with substrate … (SEQ ID NO:113), kinase domain removed; assay: cell-based or functional assay
[3] = target: parental (WT) ZAP70 FRET biosensor with LAT Y191 substrate … (SEQ ID NO:107), kinase domain removed; assay: cell-based or functional assay

- ECFP/FRET ratio change (sensitivity) of the biosensor in Jurkat T cells upon CD3/CD28-antibody stimulation [2]: 25%
- ECFP/FRET ratio change (sensitivity) of the biosensor in Jurkat T cells upon CD3/CD28-antibody stimulation [3]: 5.8%
B1: ZAP70 kinase (Zeta-chain-associated protein kinase 70), endogenous in Jurkat T cells (protein)
chain: MPDPAAHLPFFYGSISRAEAEEHLKLAGMADGLFLLRQCLRSLGGYVLSLVHDVRFHHFPIERQLNGTYAIAGGKAHCGPAELCEFYSRDPDGLPCNLRKPCNRPSGLEPQPGVFDCLRDAMVRDYVRQTWKLEGEALEQAIISQAPQVEKLIATTAHERMPWYHSSLTREEAERKLYSGAQTDGKFLLRPRKEQGTYALSLIYGKTVYHYLISQDKAGKYCIPEGTKFDTLWQLVEYLKLKADGLIYCLKEACPNSSASNASGAAAPTLPAHPSTLTHPQRRIDTLNSDGYTPEPARITSPDKPRPMPMDTSVYESPYSDPEELKDKKLFLKRDNLLIADIELGCGNFGSVRQGVYRMRKKQIDVAIKVLKQGTEKADTEEMMREAQIMHQLDNPYIVRLIGVCQAEALMLVMEMAGGGPLHKFLVGKREEIPVSNVAELLHQVSMGMKYLEEKNFVHRDLAARNVLLVNRHYAKISDFGLSKALGADDSYYTARSAGKWPLKWYAPECINFRKFSSRSDVWSYGVTMWEALSYGQKPYKKMKGPEVMAFIEQGKRMECPPECPPELYALMSDCWIYKWEDRPDFLTVEQRMRACYYSLASKVEGPPGSTQKAEAACA
- increase in sensitivity compared to the parental template (SREYVNVSGEL) [1]: > 4 fold
